From publication PMC8244254 (Current Research in Structural Biology, 2020)
Substitutions are numbered along the chain they refer to. Names and notes keep the numbering of the source.

B1: Marasmius oreades agglutinin (MOA) variant C215A (enzyme)
chain: MSLRRGIYHIENAGVPSAIDLKDGSSSDGTPIVGWQFTPDTINWHQLWLAEPIPNVADTFTLCNLFSGTYMDLYNGSSEAGTAVNGWQGTAFTTNPHQLWTIKKSSDGTSYKIQNYGSKTFVDLVNGDSSDGAKIAGWTGTWDEGNPHQKWYFNRMSVSSAEAQAAIARNPHIHGTYRGYILDGEYLVLPNATFTQIWKDSGLPGSKWREQIYDADDFAIAMKAAVGKWGADSWKANGFAIFCGVMLGVNKAGDAAHAYNFTLTKDHADIVFFEPQNGGYLNDIGYDSYMAFY
notes: Marasmius oreades agglutinin (MOA), from the cDNA for wild-type MOA in vector MOApT7-LO; the final model holds residues 2-293, no density for the first methionine; One protomer in the asymmetric unit; the second subunit of the dimer comes from crystal symmetry; Construct described in Cordara et al. (2011); also called MOA C215A; MOA-C215A
B2: Marasmius oreades agglutinin (MOA) variant C215A/H257A (enzyme)
chain: B1 chain with H257A
notes: Marasmius oreades agglutinin (MOA), from the cDNA for wild-type MOA in vector MOApT7-LO; the final model holds residues 2-293, no density for the first methionine; also called MOA C215A/H257A; MOA-C215A/H257A

Biological target: the molecule itself
Assay: crystal structure; co-crystallisation by hanging-drop vapour diffusion at 20 °C; MOA variant 5 mg/ml pre-mixed with the trisaccharide Galα1,3(Fucα1,2)Gal (1:20) and the heptapeptide at 1:10 MOA:peptide molar ratio; crystals grew over 2-4 weeks

| Protein | binding result |
| --- | --- |
| B1 | binds |
| B2 | binds |
